According to the supplement of paper PMC9170038:

Tested on: K4 kissing-loop RNA reporter
Assay: apparent KD of K4 kissing-loop reporter; higher = weaker reporter binding
Conditions: Eterna round: R107
Description: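 RNA-MaP round R107: designed RNA switches with theophylline, tryptophan, arginine or FMN aptamers are transcribed on-chip within common flanks. They are titrated with a labelled K4 kissing-loop RNA reporter in RNA-MaP buffer (100 mM Tris pH 7.5, 80 mM KCl, 4 mM MgCl2), without ligand or with the indicated ligand. Median apparent KD per design.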

[1] = input ligand: theophylline 20 uM
[2] = input ligand: tryptophan 2.4 mM
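Note: bound reporter read as fluorescence of individual clusters on recovered sequencing chips by microscopy, with normalized cluster intensities fitted with a binding model.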

| Sequence | apparent KD of K4 kissing-loop reporter (input ligand: FMN 200 uM) | apparent KD of K4 kissing-loop reporter (input ligand: arginine 13.2 mM) | apparent KD of K4 kissing-loop reporter (input ligand: none) | apparent KD of K4 kissing-loop reporter [1] | apparent KD of K4 kissing-loop reporter [2] |
| --- | --- | --- | --- | --- | --- |
| AAAUUUAUAUUAGAUACCAGCAUAUUGAAAGUUUAUUAUGACAAGAGUGAUGUUCUUGUAUGCCCUUGGCAGCUGGUAUGGGUUU [KL-XTheo-B25] | 114 nM | 107 nM | 104 nM | 110 nM | 110 nM |
| GAUACGAAGCAGUGAUGUUGCUUAUGAGAAGGAGCGCACGAAAGUGCAGGUAGGUCGCUCAGCCAUGUGGACGAAAACGUCCACA [whbob_SS_Arginine_A_sa111] | 90.2 nM | 109 nM | 97.4 nM | 126 nM | 78.1 nM |
| AGUGAUGUUGUGUUAUGCAAGGGAAGUGAUCGAGGACCGGUACGGCCGCCACUCGAGUGAUGAGUGAGUGAUGUUUGUUUAGGGA [ffgmullin] | 1180 nM | 451 nM | 933 nM | 883 nM | 401 nM |
| UGACUGGACUGAAGGAGCGCGCGAGACAAAGUCUCGAACUCCUAGUGAUGUUAGGAAAUAACGCAGGUAGGUCGCAGUCUAGUCU [ArgBS 10 #SwitchBubble #StaticStem #DoubleMagnet] | 225 nM | 190 nM | 243 nM | 209 nM | 241 nM |
| AUUCGUUUAUGUGAUACCAGACUUUGCAGUGAUGUUGCAUUAAUUAAAGAUGUUUAGUUUGUCCCUUGGCAGCACUAUUUAUUUA [JR_SSTheophyB_Sub002] | 43.1 nM | 84.4 nM | 49.6 nM | 83.3 nM | 38.9 nM |
| UUUUAAUGCAGUGAUGUUGCUAAUAAAACAGAGGAUAUGCAUGGAAGCAGAAGGCUGAUAUAUUAUACUUUAAUAUAUUAUAUUU [JR_SSFMNA_Sub011] | 77.8 nM | 147 nM | 121 nM | 188 nM | 86.6 nM |
| AGGAGCGUGCGAUGAAAAUCGCACGCUCCUCGAGGACCGGUACGGCCGCCACUCGCUCGCGCCGAGUGAUGUUCGGCCGGCGAAC [#2 Same State - Tryptophan A Attempt #8 (HarryS)] | 194 nM | 180 nM | 234 nM | 269 nM | 966 nM |
| ACACUUUACGUAGGAUAUGCGACGAGUGAUGUUCGUCAGGCGGCUUUAGAUUAUACAAGCCGCCUAGCAGAAGGACGGGCAGUGU [Araar] | 127 nM | 157 nM | 172 nM | 158 nM | 170 nM |
| CGAGUGAUGUUCGUUCGUUUAUUUCGGUGACAGGAUAUGCGGAAACGCAGAAGGGUCACCUUUGAGUUACCGGAAUUAACGUUAU [Ex FMN A 29] | 564 nM | 453 nM | 623 nM | 558 nM | 455 nM |
| CGCAGUGAUGUUGCGAGUAACUACAGGGAAGGAGCGCGGUAGUCCGCAGGUAGGUCGCCCACGCAGUGAUGUUGCGUCAUAGGGU [Exclusion Arg A GF7] | 110 nM | 109 nM | 104 nM | 118 nM | 97.3 nM |
| GGUGUUGUUUGUGCUGUUUUCCUCGUUUCUCGAGGACCGGUACGGCCGCCACUCGAGUGAUGUUUGGGUAGCGAUCUUUGUUAGU [Bdazzled - #5 Exc. Tryptophan A] | 223 nM | 142 nM | 177 nM | 177 nM | 281 nM |
| UGUACCGAGUCAGGAUAUGGCGUCGAAAGACGAAUCCUAGUGAUGUUAGUGAUCUGCGAAAGCAGUCCAGAAGGGACUUGGUACU [FmnBS 26 U50] | 199 nM | 321 nM | 334 nM | 307 nM | 344 nM |
| GUGAGGAUCCGAAGGAGCGUCCGCAAUCCAGUGAUGUUGGGUGUUGGUUAUAUUUAACGAGGACAGGUAGGUCGCGGAUUUUCAA [Same State Arginie B GF 22] | 202 nM | 126 nM | 172 nM | 193 nM | 159 nM |
| GUACAUUGGAAACAAGAACAAAUAACCGAAGGAGCGCGUGAAAACGCAGGUAGGUCGCGGAAGCAGUGAUGUUGCAUUAGAGAUC [Same State Arginine A GF 16] | 79.2 nM | 103 nM | 61.1 nM | 106 nM | 60.3 nM |
| CGGAGUGAUGUUCCUUUUAUUAAUUAUUUACGAGGACCGGUACGGCCGCCACUCGAUUUAGCUUUUAUUUAAUGCUUGGAUGUUU [JR_SSTryptoA_Sub004] | 130 nM | 212 nM | 140 nM | 208 nM | 66.3 nM |
| UUACAGGAACAAGGAUAUGGCGUUGUAGUGAUGUUACAGCGAAGAGCUCCACGCGAUCGGACAAAACCAGAAGGUGUAUGGAAUC [theeternabot_exclusion_KL_FMN_B_42] | 155 nM | 108 nM | 127 nM | 116 nM | 112 nM |

| Sequence | apparent KD of K4 kissing-loop reporter (input ligand: FMN 200 uM) | apparent KD of K4 kissing-loop reporter (input ligand: arginine 13.2 mM) | apparent KD of K4 kissing-loop reporter (input ligand: none) | apparent KD of K4 kissing-loop reporter [1] | apparent KD of K4 kissing-loop reporter [2] |
| --- | --- | --- | --- | --- | --- |
| GGGUAUUACGGAGGAUAUGCACUGAGGAGGAGAAUAUAGUGAUGUUAUAUAAGAGGAAGGAGAAGAGUAGAAGGCCGUGGUGUUU [SSFMNB.J] | 171 nM | 126 nM | 170 nM | 195 nM | 109 nM |
| UUUUAAAUAUCUGAUACCAGAGAAAAUAUAUGUAGUGAUGUUAUAUACAAAAUAAAUAAGCUCCCUUGGCAGCAGUAUUAAUUUU [AstrosExyTheB#1] | 655 nM | 622 nM | 808 nM | 688 nM | 610 nM |
| AUUUAUGUUUCGGCCGCCACUCCACGUACUCAGAGAGAGUGAUGUUCUUUUUAUUAACGUCUAUGGAGGACCGGGAAGAGGUGAG [theeternabot_exclusion_KL_Trp_B_37] | 672 nM | 640 nM | 930 nM | 931 nM | 536 nM |
| AGUGACGUCGCGGCCGCCACUGAAAUGACAGUGAUGUUGUCAAAAGAAAGUGAUGUUAAGAAAUGCAGGACCGGGUGAUAGAAAA [semi-accidental] | 223 nM | 144 nM | 158 nM | 143 nM | 125 nM |
| AGUACGGUGCCGUUCAGAUCAACGUAUGAUACCAGCUCGUAUAUUAGCCCUUGGCAGCAUCCGAGUGAUGUUCGGAUUGUGCCAC [theeternabot_exclusion_KL_Theo_A_45] | 113 nM | 98 nM | 102 nM | 93.5 nM | 102 nM |
| GCCGUACGCAUGGAUACCAGCAUCGACUCAUAUACAGUGAUGUUGUGUAAUGACCUCAUUUGCCCUUGGCAGCCAUGCGUACGGC | 471 nM | 291 nM | 620 nM | 857 nM | 800 nM |
| AGCGGCCAGUCGGCCGCCACUCCAGGCAGUGAUGUUGCGAAGUUUCUACUAGAGUGAUGUUCUAAGAGGACCGGGACUGACGUAA [Exclusion Tryptophan B Gf 9] | 217 nM | 218 nM | 253 nM | 291 nM | 199 nM |
| UGACAUUGCUCAGAUACCAGACCUGAGGAUCACCCGGGUGCCAAAACGUACUAAAUAAAGGUCCCUUGGCAGCUGAGCAAUGUCU [TheoBX 13] | 56.9 nM | 43.7 nM | 65.5 nM | 49.5 nM | 89.5 nM |
| UGUUAUGUAUCAGGAUAUUAGUGAUGUUUGUUUAUGUUAGUGAUGUUGAUAUUUGUUUUAUGUAUUUAAGAAGGGAUUGAGAUGU [dcdmullin] | 55.4 nM | 19.8 nM | 45.1 nM | 27.7 nM | 50.9 nM |
| AUGCGUGAUGCUCAAAGAGUAUCACCCGAUACCAGUAUGGAAACAUACCCUUGGCAGCGGGUAACUGCCCAGUGAUGUUGGACGC [Theophylline A K4 10] | 286 nM | 160 nM | 242 nM | 288 nM | 234 nM |
| UGAUAGGACAGAAGGAGCGGUAGUGAUGUUACCAAAAGGGUAAGGUGUCAAAAGACACCCUGCCAGGUAGGUCGCUGUCCUAUCU | 103 nM | 89.9 nM | 99.1 nM | 83.4 nM | 87 nM |
| CCUAUCUCAUACGAUACCAGUCAAUGAUAUUUUAUCAAUGCCAUCACCGAGUGAUGUUCGGACCCUUGGCAGCGUAUGGGAUAGG [whbob_Ex_Theo_B_sa101] | 266 nM | 212 nM | 253 nM | 417 nM | 238 nM |
| AGUCUGUAUGACAUAAGUGAUGUUUAUGUUCGAGGACCGGUACGGCCGCCACUCGCAAAUGUAUGAUUUCACGUUUGUGCAAGUA [KL-XTryp-A #analogue] | 196 nM | 183 nM | 207 nM | 220 nM | 292 nM |
| AGCCGAAAGGCGAGUGCUGUCACUCCGGAAGGAGCGCUCGAAAGAGCAGGUAGGUCGCCGGAGUGAUGUUCCGGUGCAGCACUCA [Omei KL Arginine A Exc B v5] | 654 nM | 390 nM | 1250 nM | 1210 nM | 1100 nM |
| GCAGUGAUGUUGCGGAUGUACAGUGGCGUGCGAGGACCGGUACGGCCGCCACUCGUACAGAGCCAGCUAAUACAUCGAUUGGUGA [whbob_SS_Tryp_A_m7] | 387 nM | 176 nM | 206 nM | 157 nM | 212 nM |
| CGGCGGAGUGAUGUUCUGCUCGCUCCGGAUACCAGCUUCGCCAGAGGCCCUUGGCAGCCGGGCGGCCCAGUGAUGUUGGGUUGCG [Same State Theophylline A GF 17] | 297 nM | 243 nM | 277 nM | 246 nM | 237 nM |
